Target: T1, uPAR (species and form not stated)
T1 construct: also called uPA receptor
T1 sequence (Q03405 23-305): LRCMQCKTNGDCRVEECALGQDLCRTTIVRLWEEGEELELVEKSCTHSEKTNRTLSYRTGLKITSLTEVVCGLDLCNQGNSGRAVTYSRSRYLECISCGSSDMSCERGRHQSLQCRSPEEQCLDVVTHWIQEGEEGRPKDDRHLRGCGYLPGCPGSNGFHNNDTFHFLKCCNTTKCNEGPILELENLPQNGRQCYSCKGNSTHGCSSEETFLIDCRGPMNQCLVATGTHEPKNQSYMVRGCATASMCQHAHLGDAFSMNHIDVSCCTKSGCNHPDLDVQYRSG

Kd: < 1 nM
B1: recombinant mouse amino terminal fragment (ATF, 135 aa) of uPA (ligand, UniProt P06869 21-155, looked up)
chain: GSVLGAPDESNCGCQNGGVCVSYKYFSRIRRCSCPRKFQGEHCEIDASKTCYHGNGDSYRGKANTDTKGRPCLAWNAPAVLQKPYNAHRPDAISLGLGKHNYCRNPDNQKRPWCYVQIGLRQFVQECMVHDCSLS
notes: range 1-135; 17 kDa, made in E. coli BL21; also called mouse ATF peptide; murine ATF; not shown: tag from vector pET101/D-TOPO (purified on Ni-NTA)
